The target of the assay is T1, CTLA4 Fc bIgG3aSAP (canine; bovine, UniProt Q9XSI1 36-161, limits assumed).
T1 construct: No linker
T1 sequence: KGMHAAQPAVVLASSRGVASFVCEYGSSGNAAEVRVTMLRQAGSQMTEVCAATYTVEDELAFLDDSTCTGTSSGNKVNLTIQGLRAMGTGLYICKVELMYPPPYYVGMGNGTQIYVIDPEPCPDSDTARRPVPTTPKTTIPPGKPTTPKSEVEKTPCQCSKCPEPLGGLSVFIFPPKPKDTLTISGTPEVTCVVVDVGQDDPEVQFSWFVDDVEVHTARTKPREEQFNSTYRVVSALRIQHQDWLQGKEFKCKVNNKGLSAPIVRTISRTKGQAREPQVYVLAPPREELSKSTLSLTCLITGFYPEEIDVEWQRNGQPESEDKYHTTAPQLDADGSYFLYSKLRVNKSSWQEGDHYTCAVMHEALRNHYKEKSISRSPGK
Description: SPR Biacore, biotinylated receptor on SA sensor, pH 7.4, 15 C. A general note: SPR reads the build-up and loss of mass on a sensor chip optically.

B1: recombinant bovine FcgR2 (receptor)
chain: KPDLPKAVVTIQPAWINVLREDHVTLTCQGTSFSAGNLTTWFHNGSSIHTQKQPSYSFRAGSNDSGSYRCQREQTSLSDPVHLDVISDWLLLQTPSLVFQEGEPIMLRCHSWRNQPLNKITFYQDRKSKIFSYQRTNFSIPRANLSHSGQYHCTAFIGKMLHSSQPVNITVQESSSSGPSSMTHHHHHHAGLNDIFEAQKIEWHE
modifications: biotin on the BAP tag (BirA)
notes: also called bFcgR2; bFcgRII
With B1, the binding result is on record as “no binding”.
